This is an account of results in patent US20240189443A1, “PD-L1 AND TLR7 DOUBLE-TARGETING NANOBODY COUPLING DRUG AND USE THEREOF IN ANTI-TUMOR” (SHANGHAI INSTITUTE OF MATERIA MEDICA, CHINESE ACADEMY OF …, priority 2021, published 2024).

In general, EC50 refers to the concentration at which the effect is half-maximal. By IC50 is commonly meant the midpoint of a concentration-inhibition curve.

For assay [1], the target named is T1, mPD-L1-Fc fusion protein (mouse; human, UniProt Q9EP73 19-239).
T1 construct: extracellular domain; also called Mouse PD-L1 (ECD)-pFUSE-hIgG1-Fc; not shown: Fc of human IgG1 from vector pFUSE-hIgG1-Fc
T1 sequence (Q9EP73 19-239 limits assumed): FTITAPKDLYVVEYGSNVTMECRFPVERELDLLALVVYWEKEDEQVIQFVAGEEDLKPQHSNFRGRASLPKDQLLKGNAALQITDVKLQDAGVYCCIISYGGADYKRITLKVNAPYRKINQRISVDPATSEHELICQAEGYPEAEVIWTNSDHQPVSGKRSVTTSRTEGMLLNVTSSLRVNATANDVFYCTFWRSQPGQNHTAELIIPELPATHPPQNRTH
Description: ELISA, coated mPD-L1-Fc, anti-mouse HRP detection. As for the experimental part:
Coating the plate with mPD-L1-Fc fusion protein at 4° C. overnight, then the plate was sealed with BSA at 37° C. for 2 hours, Nb 16 nanobodies of different concentrations were added in each hole, reacted at room temperature for 1 hour, and the plate were washed and goat anti-mouse horseradish peroxidase labeled antibody was added, and reacting at room temperature for 1 hour. After washing, a color developing solution was added, and an absorption value was read at a wavelength of 450 nm.
(In an ELISA, binding on a coated surface is turned into a signal by an enzyme label.)

The target of assay [2] is T1, mPD-L1-Fc fusion protein. Description: competition ELISA, coated mPD-L1-Fc, 10 µg/mL mouse PD-1-Fc-Biotin, SA-HRP detection. The method, then:
Coating the plate with mPD-L1-Fc fusion protein at 4° C. overnight, then the plate was sealed with BSA at 37° C. for 2 hours, Nb16 nanobodies of different concentrations and 10 μg/mL mouse PD-1-Fc-Biotin fusion protein were added in each hole., After reacting at room temperature for 1 hour, the plate was washed and antibody SA-HRP was added, and the plate reacted at room temperature for 1 hour. After washing, a color developing solution was added, and an absorption value was read at a wavelength of 450 nm.

The target in assay [3] is T2, mouse PD-L1 on cell strain HEK293T/mPD-L1 (mouse, UniProt Q9EP73 19-290).
T2 construct: whole, on cells
T2 sequence (Q9EP73 19-290): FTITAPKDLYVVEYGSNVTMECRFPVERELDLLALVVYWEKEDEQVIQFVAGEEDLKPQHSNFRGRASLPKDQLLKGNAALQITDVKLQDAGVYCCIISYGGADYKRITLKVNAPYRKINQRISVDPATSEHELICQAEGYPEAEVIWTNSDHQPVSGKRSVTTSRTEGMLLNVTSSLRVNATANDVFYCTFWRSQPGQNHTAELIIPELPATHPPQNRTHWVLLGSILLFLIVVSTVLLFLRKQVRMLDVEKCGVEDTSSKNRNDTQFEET
The experiment in a line: flow cytometry on HEK293T/mPD-L1, anti-mouse IgG Fc (PE). (In general: Flow cytometry measures light scatter and fluorescence of single cells or particles in a stream.)

Assay [4] has as its target T3, human PD-1/PD-L1 (HEK293T/hPD-L1) (Homo sapiens, UniProt Q9NZQ7).
T3 construct: expressed in transfected cells; host or cells: HEK293T
The experiment in a line: Human PD-1/PD-L1 blocking activity assay of candidate anti-human PD-L1 nanobodies (flow cytometry). Format: binding. Conditions: nanobody 10 μg/mL, human PD-1-his 1 μg/mL. The method, then:
The cell strain HEK293T/hPD-L1 was digested, and centrifugationwas performed to remove the supernatant; the cells were washed one time with PBS and the cell density was adjusted to 2.5×10^6 cells/mL; each cell sample was added to a 100 μL cell suspension, that is, a 2.5×10^5 cell/sample was comprised; and the human PD-1-his protein (the concentration was 1 μg/mL) and the anti-human PD-L1 candidate nanobody (the concentration was 10 μg/mL) were respectively added to the sample; the cells were incubated for 20 min at 4° C.; centrifuging, supernatant was removed, and the cells were washed once with PBS; using diluted antibody anti-his-APC as secondary antibody, and the cells were re-suspended; incubated at 4° C. for 20 min; centrifuging, supernatant was removed, the cells were washedtwice with PBS, and was transferred to a flow tube; and was performed on-machine detection by using a flow cytometer to obtain the PD-1/PD-L1 blocking activity of the candidate nanobody, as shown in FIG. 14.

The next assay has as its target T4, HEK293T/hPD-L1 (Homo sapiens, UniProt Q9NZQ7).
T4 construct: expressed in transfected cells; host or cells: HEK293T
Description: Human PD-L1 binding activity assay of candidate anti-human PD-L1 nanobodies (flow cytometry). Conditions: nanobody 10 μg/mL. The method, then:
The cell strain HEK293T/hPD-L1 was digested, and centrifugationwas performed to remove the supernatant; the cells were washed one time with PBS and the cell density was adjusted to 2.5×10^6 cells/mL; each cell sample was added to a 100 μL cell suspension, that is, a 2.5×10^5 cell/sample was comprised; different anti-human PD-L1 candidate nanobodies (the concentration is 10 μg/mL) were respectively added to the samples; incubating for 20 min at 4° C.; centrifuging, removing supernatant, and the cells were washing once with PBS; using diluted antibody anti-human IgG Fc (FITC) as secondary antibody, and the cells were re-suspended; incubating at 4° C. for 20 min; centrifuging, removing supernatant, the cells were washing twice with PBS, and transferred to a flow tube; and was performed on-machine detection by using a flow cytometer to obtain the binding activity of the candidate nanobody and human PD-L1, as shown in FIG. 13.

T3 sequence (Q9NZQ7 19-290): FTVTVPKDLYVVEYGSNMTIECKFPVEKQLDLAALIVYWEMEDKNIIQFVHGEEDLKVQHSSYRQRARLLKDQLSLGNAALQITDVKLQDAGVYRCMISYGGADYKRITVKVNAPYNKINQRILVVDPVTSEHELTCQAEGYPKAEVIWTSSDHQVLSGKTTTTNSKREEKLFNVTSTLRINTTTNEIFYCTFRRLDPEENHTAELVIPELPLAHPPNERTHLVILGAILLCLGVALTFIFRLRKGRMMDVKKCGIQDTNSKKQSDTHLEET
T4 sequence (Q9NZQ7 19-290): as above

B1: nanobody Nb16 (Fc fusion)
chain: QVQLQESGGGSVQAGGSLRLSCAASGYTDRNYWMGWFRQAPGKEREGVAALYTRTGSTYYADSVKGRFTISHDNAKNTLYLQMNSLKPEDTAVYYCAADSNAYGLAPLHHYWGQGTQVTVSS
notes: also called bare anti-Nb16; original PD-L1 nanobody; not shown: Fc of mouse IgG2b from vector pFUSE-mIgG2b-Fc
On to B1, for which, in the assay with mPD-L1-Fc fusion protein [1], the EC50 was 0.045 µg/mL. For the same molecule, the IC50 with mPD-L1-Fc fusion protein [2] was 1.02 µg/mL.

B2: PD-L1 and TLR7 double-targeting nanobody coupling drug Nb16-SZU-101 (Fc fusion)
chain: QVQLQESGGGSVQAGGSLRLSCAASGYTDRNYWMGWFRQAPGKEREGVAALYTRTGSTYYADSVKGRFTISHDNAKNTLYLQMNSLKPEDTAVYYCAADSNAYGLAPLHHYWGQGTQVTVSS
modifications: TLR7 agonist SZU-101 coupled through SZU-101-NHS active ester to amino groups, sites not given; coupling degree 4.5
notes: not shown: Fc of mouse IgG2b from vector pFUSE-mIgG2b-Fc
For B2, the binding result in assay [3] is on record as “binds”.

B3: h_Nb1: anti-human PD-L1 nanobody, VHH SEQ ID NO: 21 (protein)
VHH: DVQLQESGGGLVQPGGSLRLSCAASGFTFSSYAMSWVRQAPGKGLEWVSDINSGGDNTDYADSVKGRFTISRDNAKNTLYLQMNSLKPEDTAVYYCARGPKLCFSSWGQGTQVTVSS
modifications: h_Nb1 Amino acid sequence of VHH
Turning to B3, in assay [4], the “Blocking of human PD-1/PD-L1 binding” value is on record as “effectively block”. In addition, in the assay with HEK293T/hPD-L1, the “Binding activity with human PD-L1” value was “good binding activity”.

B4: h_Nb2: anti-human PD-L1 nanobody, VHH SEQ ID NO: 25 (protein)
VHH: DVQLQESGGGLVQPGGSLRLSCAASGFTFGDRWMYWLRQAPGKGLEWVSSINPAGRSTYYADSVKGRFTISRDNAKNTLYLQMNSLKSEDTAVYYCTKDPGGYQKGQGTQVTVSS
modifications: h_Nb2 Amino acid sequence of VHH
For the molecule B4, the “Blocking of human PD-1/PD-L1 binding” value in assay [4] was “effectively block”. In addition, the “Binding activity with human PD-L1” value with HEK293T/hPD-L1 is reported as “good binding activity”.
